Measured values as given in patent US20190315886A1 (JIANGSU HENGRUI MEDICINE, published 2019).
Residue numbers refer to the chain shown, from its start. Each block holds one binder with its values, some of them ahead of it.

Experiments:
[1] = target: T1, human thrombin with His tag (human, UniProt P00734 328-622); experiment: binding ELISA, biotinylated His-tagged human thrombin on streptavidin plate
Excerpt: The binding ability of anti-thrombin antibody was detected by ELISA assay with the antibodies and the human thrombin with His tag. Thrombin protein with His tag labeled with the biotin-labeling kit (Dongren Chemicals, Cat No. LK03) was immobilized into a 96-well microtiter plate by binding to streptavidin coated on the microtiter plate, the strength of the signal after the addition of the antibody was used to determine the binding activity of the antibody to thrombin. The specific experimental method is as follows.
Streptavidin (Sigma, Cat No. S4762-5MG) was diluted to a concentration of 5 μg/ml with PBS buffer, pH 7.4 (Sigma, Cat No. P4417-100TAB) and added to a 96-well plate at a volume of 50 μl/well, and then, the plate was incubated in the incubator at 37° C. for 2 hours. After discarding the liquid, the plates were blocked with 200 μl/well of blocking solution containing 5% skim milk (Guangming skim milk) in PBS, and incubated in the incubator at 37° C. for 2.5 hours or overnight at 4° C. (16-18 hours). After blocking, the blocking solution was discarded and the plate was washed 5 times with PB ST buffer (PBS containing 0.05% tweeen-20, pH7.4). Human thrombin protein with His tag labeled with the biotin-labeling (SEQ ID NO: 2, as shown by the double underline) was diluted with sample dilution (PBS containing 1% BSA, PH7.4) to 50 μg/ml and was added to each well, 50 μl/well. Then the plate was incubated in the incubator at 37° C. for 2 h or overnight. After incubation, the blocking solution in the plate was discarded, and the plate was washed with PBST 6 times, and then 50 μl/well of various concentrations of the test antibodies diluted with sample dilution was added to each well, and the plate was incubated at 37° C. for 2 h. The plates were washed 5 times with PBST after incubation, and 100 μl/well of goat anti-human secondary antibody (Jackson Immuno Research, Cat No. 109-035-003) labeled with HRP was added to each well, diluted in sample dilution, and the plate was incubated at 37° C. for 1 h. After washing the plates 5 times with PBST, 50 μl/well of TMB chromogenic substrate (KPL, Cat No. 52-00-03) was added to each well, and incubated at room temperature for 10-15 min. The reaction was stopped by the addition of 50 μl/well 1M H₂SO₄ to each well.

[2] = target: T1, human thrombin with His tag; experiment: Biacore; ratio of KD on pro-thrombin to KD on thrombin
[3] = target: T1, human thrombin with His tag; experiment: Biacore; reference h1601-008
[4] = target: T2, human prothrombin with His tag (human, UniProt P00734 44-622); experiment: Biacore; reference h1601-008
T2 construct: also called h-prothrombin-his

[5] = target: T1, human thrombin with His tag; experiment: Biacore
[6] = target: T2, human prothrombin with His tag; experiment: Biacore
[7] = target: T1, human thrombin with His tag; experiment: BIAcore, antibody captured by anti-human antibody
[8] = target: T2, human prothrombin with His tag; experiment: BIAcore, antibody captured by anti-human antibody
[9] = target: T1, human thrombin with His tag; experiment: biacore; selectivity thrombin over pro-thrombin, reference h1601-008
[10] = target: T1, human thrombin with His tag; experiment: BIAcore
[11] = target: T2, human prothrombin with His tag; experiment: BIAcore
[12] = target: T1, human thrombin with His tag; experiment: binding ELISA
[13] = target: T2, human prothrombin with His tag; experiment: binding ELISA
[14] = target: T3, mouse thrombin with His tag (mouse, UniProt P19221 325-618, limits assumed); experiment: binding ELISA
T3 construct: also called m-thrombin-His; murine thrombin

B1: humanized antibody h1601-005 (antibody, human IgG4 S228P, kappa, V domains shown)
VH: EVQLVESGGGLVQPGGSLRLSCAASGFTFSDYYMAWVRQAPGKGLEWVSNINSDGSSTYYLDSLKSRFTISRDNSKNTLYLQMNSLKAEDTAVYYCARDHYHGNSYVFDYWGQGTTVTVSS
VL: DIQMTQSPSSLSASVGDRVTITCKASEDIYNRLAWYQQKPGKAPKLLISGATSLETGVPSRFSGSGSGKDFTLTISSLQPEDFATYYCQQYWSTPWTFGGGTKVEIKR
EC50 [1]: 5.8 nM

B2: aTM-2 (antibody, V domains shown)
VH: B1 VH with H102L, Y110S
VL: DIQMTQSPSSLSASVGDRVTITCKASEDIYNRLAWYQQKPGKAPRLIISGATSLETGVPSRFSGSGSGKDYTLTISSLQPEDFATYYCQQYWSTPWTFGGGTKVEIK
Selective activity [2]: 13.7
Fold of Affinity relative to h1601-008 [3]: 86.5 fold
Fold of Affinity relative to h1601-008 [4]: 62.4 fold
Kd [5]: 0.0899 nM
Kd [6]: 1.23 nM

B4: aTM-7 (antibody, V domains shown)
VH: B1 VH with H102M, Y110T
VL: B2 VL
Selective activity [2]: 11.9
Fold of Affinity relative to h1601-008 [3]: 45.2 fold
Fold of Affinity relative to h1601-008 [4]: 37.5 fold
Kd [5]: 0.172 nM
Kd [6]: 2.05 nM

B5: aTM-1 (antibody, V domains shown)
VH: B1 VH with H102I, N104A
VL: B2 VL
Selective activity [2]: 18.2
Fold of Affinity relative to h1601-008 [3]: 40.7 fold
Fold of Affinity relative to h1601-008 [4]: 22.1 fold
fold increase of selectivity (against h1601-008) [9]: 1.8 times
Kd [5]: 0.191 nM
Kd [6]: 3.48 nM

B8: aTM-4 (antibody, V domains shown)
VH: B1 VH with H102L, Y110L
VL: B2 VL
Selective activity [2]: 18.2
Fold of Affinity relative to h1601-008 [3]: 54 fold
Fold of Affinity relative to h1601-008 [4]: 29.3 fold
Kd [5]: 0.144 nM
Kd [6]: 2.62 nM

Second part, the binder after the results:

EC50 [1]: 1.54 nM
Selective activity [2]: 9.9
Fold of Affinity relative to h1601-008 [3]: 1 fold
Fold of Affinity relative to h1601-008 [4]: 1 fold
Kd [7]: 8.97 nM
Kd [8]: 94.3 nM
Kd [5]: 7.78 nM
Kd [6]: 76.8 nM
B3: humanized antibody h1601-008 (antibody, human IgG4 S228P, kappa, V domains shown)
VH: B1 VH
VL: B1 VL with K45R, L47I, F71Y

EC50 [1]: 4.45 nM
B6: humanized antibody h1601-006 (antibody, human IgG4 S228P, kappa, V domains shown)
VH: B1 VH with Q3K, S49A
VL: B1 VL

EC50 [1]: 1.49 nM
Kd [7]: 8.17 nM
B7: humanized antibody h1601-009 (antibody, human IgG4 S228P, kappa, V domains shown)
VH: B1 VH with Q3K, S49A
VL: B1 VL with K45R, L47I, F71Y

Kd [10]: 2.27 nM
Kd [11]: 78.7 nM
EC50 [12]: 0.71 nM
EC50 [13]: 42.6 nM
binding result [14]: no binding
B9: chimeric antibody CH-1601 (antibody, human IgG4 S228P, kappa, V domains shown)
VH: EVKLVESEGGLVQPGSSLKLSCTASGFTFSDYYMAWVRQVPEKGLEWVANINSDGSSTYYLDSLKSRFIISRDNAKNILYLQMSSLKSEDTATYYCARDHYHGNSYVFDYWGQGTTLTVSS
VL: DIQMTQSSSSFSVSRGNRVTITCKASEDIYNRLAWYQQKPGNAPRLIISGATSLETGVPSRFSGSGSGKDYTLSITSLQTEDVGTYYCQQYWSTPWTFGGGTKLEIKR
